One experiment has as its target T1, CD3 (human).
T1 chain: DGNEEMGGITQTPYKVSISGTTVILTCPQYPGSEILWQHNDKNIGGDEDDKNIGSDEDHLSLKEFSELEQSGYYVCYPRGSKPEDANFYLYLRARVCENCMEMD
Description: CD3 binding as in Example 2 (ELISA or FCM).

For the next experiment, the target named is T2, CD137 (human, UniProt Q07011 24-186).
T2 construct: Whole on GS-H2-huCD137 reporter cells in the reporter assays; also called 4-1BB
Description: FCM or ELISA, graded.

B1: Ly1966 (multi-specific antibody)
chain 1: QVQLQQSGAELVRPGSSVKISCKASGYAFSSYWMNWVKQRPGQGLEWIGQIWPGDGDTNYNGKFKGKATLTADESSSTAYMQLSSLASEDSAVYFCARRETTTVGRYYYAMDYWGQGTTVTVSSASTKGPSVFPLAPSSKSTSGGTAALGCLVKDYFPEPVTVSWNSGALTSGVHTFPAVLQSSGLYSLSSVVTVPSSSLGTQTYICNVNHKPSNTKVDKKVEPKSCGGGGSGGGGSGGGGSGGGGSEVQLVESGGGLVQPGGSLRLSCAASGFTFSTYAMNWVRQAPGKGLEWVGRIRSKYNNYATYYADSVKGRFTISRDDSKNSLYLQMNSLKTEDTAVYYCVRHGNFGNSYVSWFAYWGQGTLVTVSSGGGGSDKTHTCPPCPAPEAAGPSVFLFPPKPKDTLMISRTPEVTCVVVDVSHEDPEVKFNWYVDGVEVHNAKTKPREEQYNSTYRVVSVLTVLHQDWLNGKEYKCKVSNKALPAPIEKTISKAKGQPREPQVYTLPPSREEMTKNQVSLWCLVKGFYPSDIAVEWESNGQPENNYKTTPPVLDSDGSFFLYSKLTVDKSRWQQGNVFSCSVMHEALHNHYTQKSLSLSPGGGGGSGGGGSGGGGSGGGGSQVQLVQSGAEVKKPGASVKVSCKASGYTFAGFEMHWVRQAPGQGLEWMGAIDPKTGGTDYNQKFKDRVTMTRDTSISTAYMELSRLRSDDTAVYYCARDLGYFDVWGQGTLVTVSS
chain 2: QVQLQQSGAELVRPGSSVKISCKASGYAFSSYWMNWVKQRPGQGLEWIGQIWPGDGDTNYNGKFKGKATLTADESSSTAYMQLSSLASEDSAVYFCARRETTTVGRYYYAMDYWGQGTTVTVSSASTKGPSVFPLAPSSKSTSGGTAALGCLVKDYFPEPVTVSWNSGALTSGVHTFPAVLQSSGLYSLSSVVTVPSSSLGTQTYICNVNHKPSNTKVDKKVEPKSCGGGGSGGGGSGGGGSGGGGSQAVVTQEPSLTVSPGGTVTLTCRSSTGAVTTSNYANWVQQKPGQAPRGLIGGTNKRAPWTPARFSGSLLGGKAALTITGAQAEDEADYYCALWYSNLWVFGGGTKLTVLGGGGSDKTHTCPPCPAPEAAGPSVFLFPPKPKDTLMISRTPEVTCVVVDVSHEDPEVKFNWYVDGVEVHNAKTKPREEQYNSTYRVVSVLTVLHQDWLNGKEYKCKVSNKALPAPIEKTISKAKGQPREPQVYTLPPSREEMTKNQVSLSCAVKGFYPSDIAVEWESNGQPENNYKTTPPVLDSDGSFFLVSKLTVDKSRWQQGNVFSCSVMHEALHNRFTQKSLSLSPGGGGGSGGGGSGGGGSGGGGSDIQMTQSPSSLSASVGDRVTITCRASQDIRSNLNWYQQKPGGAVKLLIYYTSRLHSGVPSRFSGSGSGTDYTLTISSLQPEDFATYFCQQSEKLPRTFGGGTKVEIR
chain 3: not shown
notes: CD19/CD3/CD137
Consider B1, for which the EC50 in the experiment with CD3 is 0.348 µg/mL.

B2: Ly1967 (multi-specific antibody)
chain 1: QVQLQQSGAELVRPGSSVKISCKASGYAFSSYWMNWVKQRPGQGLEWIGQIWPGDGDTNYNGKFKGKATLTADESSSTAYMQLSSLASEDSAVYFCARRETTTVGRYYYAMDYWGQGTTVTVSSASTKGPSVFPLAPSSKSTSGGTAALGCLVKDYFPEPVTVSWNSGALTSGVHTFPAVLQSSGLYSLSSVVTVPSSSLGTQTYICNVNHKPSNTKVDKKVEPKSCGGGGSGGGGSGGGGSGGGGSEVQLVESGGGLVQPGGSLRLSCAASGFTFSTYAMNWVRQAPGKGLEWVGRIRSKYNNYATYYADSVKGRFTISRDDSKNSLYLQMNSLKTEDTAVYYCVRHGNFGNSYVSWFAYWGQGTLVTVSSGGGGSDKTHTCPPCPAPEAAGPSVFLFPPKPKDTLMISRTPEVTCVVVDVSHEDPEVKFNWYVDGVEVHNAKTKPREEQYNSTYRVVSVLTVLHQDWLNGKEYKCKVSNKALPAPIEKTISKAKGQPREPQVYTLPPSREEMTKNQVSLWCLVKGFYPSDIAVEWESNGQPENNYKTTPPVLDSDGSFFLYSKLTVDKSRWQQGNVFSCSVMHEALHNHYTQKSLSLSPGGGGGSGGGGSGGGGSGGGGSQVQLVQSGAEVKKPGASVKVSCKASGYTFAGFEMHWVRQAPGQGLEWMGAIDPKTGGTDYNQKFKDRVTMTRDTSISTAYMELSRLRSDDTAVYYCARDLGYFDVWGQGTLVTVSS
chain 2: QVQLQQSGAELVRPGSSVKISCKASGYAFSSYWMNWVKQRPGQGLEWIGQIWPGDGDTNYNGKFKGKATLTADESSSTAYMQLSSLASEDSAVYFCARRETTTVGRYYYAMDYWGQGTTVTVSSASTKGPSVFPLAPSSKSTSGGTAALGCLVKDYFPEPVTVSWNSGALTSGVHTFPAVLQSSGLYSLSSVVTVPSSSLGTQTYICNVNHKPSNTKVDKKVEPKSCGGGGSGGGGSGGGGSGGGGSQAVVTQEPSLTVSPGGTVTLTCRSSTGAVTTSNYANWVQQKPGQAPRGLIGGTNKRAPWTPARFSGSLLGGKAALTITGAQAEDEADYYCALWYSNLWVFGGGTKLTVLGGGGSDKTHTCPPCPAPEAAGPSVFLFPPKPKDTLMISRTPEVTCVVVDVSHEDPEVKFNWYVDGVEVHNAKTKPREEQYNSTYRVVSVLTVLHQDWLNGKEYKCKVSNKALPAPIEKTISKAKGQPREPQVYTLPPSREEMTKNQVSLSCAVKGFYPSDIAVEWESNGQPENNYKTTPPVLDSDGSFFLVSKLTVDKSRWQQGNVFSCSVMHEALHNHYTQKSLSLSPGGGGGSGGGGSGGGGSGGGGSDIQMTQSPSSLSASVGDRVTITCRASQDIRSNLNWYQQKPGGAVKLLIYYTSRLHSGVPSRFSGSGSGTDYTLTISSLQPEDFATYFCQQSEKLPRTFGGGTKVEIR
chain 3: not shown
notes: CD19/CD3/CD137
As for B2, the midpoint of the response with CD3, the EC50, lay at 1.56 µg/mL.

B3: Ly2600 (multi-specific antibody)
chain 1: QVQLVQSGAEVKKPGASVKVSCKASGYTFTSYVMHWVRQKPGQGLEWIGYINPYNEGTESTDKFKGRATMTSDKSTSTVYMELSSLRSEDTAVYYCASIYYGYEGTYFGVWGQGTLVTVSSASTKGPSVFPLAPSSKSTSGGTAALGCLVKDYFPEPVTVSWNSGALTSGVHTFPAVLQSSGLYSLSSVVTVPSSSLGTQTYICNVNHKPSNTKVDKKVEPKSCGGGGSGGGGSGGGGSGGGGSEVQLVESGGGLVQPGGSLRLSCAASGFTFSTYAMNWVRQAPGKGLEWVGRIRSKYNNYATYYADSVKGRFTISRDDSKNSLYLQMNSLKTEDTAVYYCVRHGNFGNSYVSWFAYWGQGTLVTVSSGGGGSDKTHTCPPCPAPELLGPSVFLFPPKPKDTLMISRTPEVTCVVVDVSHEDPEVKFNWYVDGVEVHNAKTKPREEQYNSTYRVVSVLTVLHQDWLNGKEYKCKVSNKALGAPIEKTISKAKGQPREPQVYTLPPSREEMTKNQVSLWCLVKGFYPSDIAVEWESNGQPENNYKTTPPVLDSDGSFFLYSKLTVDKSRWQQGNVFSCSVMHEALHNHYTQKSLSLSPGGGGGSGGGGSGGGGSGGGGSQVQLVQSGAEVKKPGASVKVSCKASGYTFAGFEMHWVRQAPGQGLEWMGAIDPKTGGTDYNQKFKDRVTMTRDTSISTAYMELSRLRSDDTAVYYCARDLGYFDVWGQGTLVTVSS
chain 2: QVQLVQSGAEVKKPGASVKVSCKASGYTFTSYVMHWVRQKPGQGLEWIGYINPYNEGTESTDKFKGRATMTSDKSTSTVYMELSSLRSEDTAVYYCASIYYGYEGTYFGVWGQGTLVTVSSASTKGPSVFPLAPSSKSTSGGTAALGCLVKDYFPEPVTVSWNSGALTSGVHTFPAVLQSSGLYSLSSVVTVPSSSLGTQTYICNVNHKPSNTKVDKKVEPKSCGGGGSGGGGSGGGGSGGGGSQAVVTQEPSLTVSPGGTVTLTCRSSTGAVTTSNYANWVQQKPGQAPRGLIGGTNKRAPWTPARFSGSLLGGKAALTITGAQAEDEADYYCALWYSNLWVFGGGTKLTVLGGGGSDKTHTCPPCPAPELLGPSVFLFPPKPKDTLMISRTPEVTCVVVDVSHEDPEVKFNWYVDGVEVHNAKTKPREEQYNSTYRVVSVLTVLHQDWLNGKEYKCKVSNKALGAPIEKTISKAKGQPREPQVYTLPPSREEMTKNQVSLSCAVKGFYPSDIAVEWESNGQPENNYKTTPPVLDSDGSFFLVSKLTVDKSRWQQGNVFSCSVMHEALHNHYTQKSLSLSPGGGGGSGGGGSGGGGSGGGGSDIQMTQSPSSLSASVGDRVTITCRASQDIRSNLNWYQQKPGGAVKLLIYYTSRLHSGVPSRFSGSGSGTDYTLTISSLQPEDFATYFCQQSEKLPRTFGGGTKVEIR
chain 3: EIVLTQSPATLSLSPGERATLSCRASSSVSYMHWYQQKPGQAPRPWIYATSNLASGIPARFSGSRSGTDYTLTISSLEPEDFAVYYCQQWSSNTLTFGGGTKVEIKRTVAAPSVFIFPPSDEQLKSGTASVVCLLNNFYPREAKVQWKVDNALQSGNSQESVTEQDSKDSTYSLSSTLTLSKADYEKHKVYACEVTHQGLSSPVTKSFNRGEC
notes: B7H3/CD3/CD137
In the case of B3, the binding result with CD137 is on record as “binds”.

B4: Ly2936 (multi-specific antibody)
chain 1: QVQLVQSGAEVKKPGASVKVSCKASGYTFTSYVMHWVRQKPGQGLEWIGYINPYNEGTESTDKFKGRATMTSDKSTSTVYMELSSLRSEDTAVYYCASIYYGYEGTYFGVWGQGTLVTVSSASTKGPSVFPLAPSSKSTSGGTAALGCLVKDYFPEPVTVSWNSGALTSGVHTFPAVLQSSGLYSLSSVVTVPSSSLGTQTYICNVNHKPSNTKVDKKVEPKSCGGGGSGGGGSGGGGSGGGGSEVQLVESGGGLVQPGGSLRLSCAASGFTFSTYAMNWVRQAPGKGLEWVGRIRSKYNNYATYYADSVKGRFTISRDDSKNSLYLQMNSLKTEDTAVYYCVRHGNFGNSYVSWFAYWGQGTLVTVSSGGGGSDKTHTCPPCPAPELLGPSVFLFPPKPKDTLMISRTPEVTCVVVDVSHEDPEVKFNWYVDGVEVHNAKTKPREEQYNSTYRVVSVLTVLHQDWLNGKEYKCKVSNKALGAPIEKTISKAKGQPREPQVYTLPPSREEMTKNQVSLWCLVKGFYPSDIAVEWESNGQPENNYKTTPPVLDSDGSFFLYSKLTVDKSRWQQGNVFSCSVMHEALHNHYTQKSLSLSPGKGGGGSGGGGSGGGGSGGGGSQVQLVQSGAEVKKPGASVKVSCKASGYTFAGFEMHWVRQAPGQGLEWMGAIDPKTGGTDYNQKFKDRVTMTRDTSISTAYMELSRLRSDDTAVYYCARDLGYFDVWGQGTLVTVSS
chain 2: QVQLVQSGAEVKKPGASVKVSCKASGYTFTSYVMHWVRQKPGQGLEWIGYINPYNEGTESTDKFKGRATMTSDKSTSTVYMELSSLRSEDTAVYYCASIYYGYEGTYFGVWGQGTLVTVSSASTKGPSVFPLAPSSKSTSGGTAALGCLVKDYFPEPVTVSWNSGALTSGVHTFPAVLQSSGLYSLSSVVTVPSSSLGTQTYICNVNHKPSNTKVDKKVEPKSCGGGGSGGGGSGGGGSGGGGSQAVVTQEPSLTVSPGGTVTLTCRSSTGAVTTSNYANWVQQKPGQAPRGLIGGTNKRAPWTPARFSGSLLGGKAALTITGAQAEDEADYYCALWYSNLWVFGGGTKLTVLGGGGSDKTHTCPPCPAPELLGPSVFLFPPKPKDTLMISRTPEVTCVVVDVSHEDPEVKFNWYVDGVEVHNAKTKPREEQYNSTYRVVSVLTVLHQDWLNGKEYKCKVSNKALGAPIEKTISKAKGQPREPQVYTLPPSREEMTKNQVSLSCAVKGFYPSDIAVEWESNGQPENNYKTTPPVLDSDGSFFLVSKLTVDKSRWQQGNVFSCSVMHEALHNRFTQKSLSLSPGKGGGGSGGGGSGGGGSGGGGSDIQMTQSPSSLSASVGDRVTITCRASQDIRSNLNWYQQKPGGAVKLLIYYTSRLHSGVPSRFSGSGSGTDYTLTISSLQPEDFATYFCQQSEKLPRTFGGGTKVEIR
chain 3: EIVLTQSPATLSLSPGERATLSCRASSSVSYMHWYQQKPGQAPRPWIYATSNLASGIPARFSGSRSGTDYTLTISSLEPEDFAVYYCQQWSSNTLTFGGGTKVEIKRTVAAPSVFIFPPSDEQLKSGTASVVCLLNNFYPREAKVQWKVDNALQSGNSQESVTEQDSKDSTYSLSSTLTLSKADYEKHKVYACEVTHQGLSSPVTKSFNRGEC
notes: B7H3/CD3/CD137
B4: in the experiment with CD137, the binding result was “binds”.

The values above are taken from patent publication EP4803150A2 (Lyvgen Biopharma Holdings Limited, dated 2026).
